# Measurements published in patent US20180319855A1, “GENETICALLY MUTATED AEQUORIN-BASED BIOSENSORS WITH EXTRA SENSITIVITY TO CALCIUM AND IMPROVED BIOLUMINESCENCE INTENSITY” (CENTRE NATIONAL DE LA RECHERCHE SCIENTIFIQUE (CNRS), priority 2015, published 2018).
# Values joined by “and” are separate entries in the source; they are usually repeats but may differ in a detail not shown here. Identical values can stand only once.
# Legend:
# [1] = Ca2+ sensitivity curves of reconstituted photoproteins (L/Lmax vs free Ca2+); format: biochemical; conditions: for Relative intensity at pCa 6.5 / Relative intensity at pCa 7.2 / affinity to calcium group relative to Aeq-wt: CLZ-f; for Relative intensity at pCa 6.5 / Relative intensity at pCa 7.2: L/Lmax compared to Aeq-wt; for affinity to calcium group relative to Aeq-wt: at pCa 6.5, FIG. 2; for EC50: aequorin proteins reconstituted with CLZ-f, sigmoidal curve fit, mean ± SD, n at least 3, read-out: Calcium sensitivity, EC50
# Procedure: For in vitro reconstitution, the purified and concentrated samples of apoaequorin and redquorin mutant proteins were buffer-exchanged to 50 mM Tris-HCl (pH 7.5), 150 mM NaCl, 10 mM EGTA, 5 mM ß-mercaptoethanol, supplemented with 5 μM CLZ-f or CLZ-native and incubated overnight at 4° C., in the dark. The next day, samples were passed through molecular weight cut-offs (AmiconUitra MWCO, 10K and 50K, from Millipore), then resuspended in Zero-Ca^2+ buffer (30 mM MOPS, 100 mM KCl and 10 mM EGTA, pH 7.2) for calcium affinity, emission decay kinetics and spectral analysis assays. As for in cellulo reconstitution, HEK cells transiently expressing the proteins of apoaequorin and aporedquorin mutants were washed twice with Hank's Balanced Salt Solution (HBSS) and incubated in the dark, with 4 μM of the desired CLZ diluted in OptiMEM I medium (Gibco), for 2-3h at 37° C. and 5% CO2. Cells were washed once and maintained in HBSS at 37° C. for 20 min before the experiment.
# Functional Analysis of Aequorin Mutants and Fusions Ca^2+ Sensitivity Curves.
# Purified and reconstituted samples with CLZ-f or CLZ-native already buffered-exchanged to zero-calcium buffer ensured to minimize calcium contamination that could interfere with the measurements. Fifteen microliter aliquot of photoprotein samples (concentration range, 50 to 90 ng/μl) was placed in a home-made luminometer and mixed with 300 μl solution containing the desired concentration of free-Ca^2+. The solutions of EGTA-buffered with varying free-Ca^2+ prepared according to the manufacturer instruction for the kit (Molecular Probes, Invitrogen). Integration of the luminescence emission (per second) was measured for 20 seconds (background) before injecting a solution with known [free-Ca^2+] and lasted until stable or decaying signal (at final-phase) was obtained. At this point, 400 μl of a saturating calcium solution (30 mM MOPS, 100 mM CaCl2, pH 7.2) was rapidly injected (less than 30 ms) and light integration continued until all aequorin had been consumed and light intensity had gone back to background signal. Luminescence intensity (L) at different [Ca^2+] was taken as the response peak value in case of decaying signal or as the stable value in case of stable emission. Lmax, was measured by integrating all remaining luminescence signal from that moment (L value) to the end of the experiment. The EC50 values were extracted from a sigmoidal dose-response fit (variable slope) using GraphPad Prism software.
# [2] = Thermostability: relative bioluminescence activity after 30 min incubation; format: physicochemical; conditions: for Thermostability, luminescence activity relative to wt-aequorin: CLZ-f
# Procedure: Thermostability of aequorin and redquorin mutant with increased affinity for calcium were compared to wt-aequorin (FIG. 5). The purified photoprotein samples were reconstituted with CLZ-f (as detailed earlier) and let to calibrate at room temperature (20-24° C.) for 20 min before taken the first measurement of total counts using saturating calcium solution (50 mM Tris-HCl, 100 mM CaCl2, pH 7.5). Samples were then incubated at two different temperatures (30 to 40° C.) for 30 min, and let equilibrate at room temperature for 15 minbefore taken the second measurement of total counts in the sample. The relative bioluminescence activity at each temperature was calculated by the ratio 2nd counts (at target T° C.)/1st counts (at initial T° C.) multiplied by 100.
# Table 6 highlights the analysis of thermostability data obtained at two temperatures for aequorin and redquorin mutants, as well as CitA and GA. The values represent the degree of change in luminescence activity compared to wt-aeq, at each temperature. All values are relative to wt-aequorin (at each temperature) and were calculated by dividing the obtained data for each mutant/variant by the data for wt-aeq (as reference). The data were taken from FIG. 5.
EC50 [1],Molecule,Relative intensity at pCa 6.5 [1],Relative intensity at pCa 7.2 [1],affinity to calcium group relative to Aeq-wt [1],"Thermostability, luminescence activity relative to wt-aequorin ([2]; 30° C. for 30 min)","Thermostability, luminescence activity relative to wt-aequorin ([2]; 40° C. for 30 min)",less activity compared to wt-aeq (thermostability) ([2]; after incubation at 30 and 40° C.)
281 ± 25 nM,"QT + AT: apoaequorin double mutant Q159T + A179T (SEQ ID NO:18) (protein, mutant aequorin) SKLTSDFDNPRWIGRHKHMFNFLDVNHNGKISLDEMVYKASDIVINNLGATPEQAKRHKDAVEAFFGGAGMKYGVETDWPAYIEGWKKLATDELEKYAKNEPTLIRIWGDALFDIVDKDQNGAITLDEWKAYTKAAGIIQSSEDCEETFRVCDIDESGTLDVDEMTRQHLGFWYTMDPTCEKLYGGAVP",29.0,14.0,–,–,–,–
330 nM,"A179T: apoaequorin mutant, alanine 179 replaced by threonine (SEQ ID NO:11) (protein, mutant aequorin) SKLTSDFDNPRWIGRHKHMFNFLDVNHNGKISLDEMVYKASDIVINNLGATPEQAKRHKDAVEAFFGGAGMKYGVETDWPAYIEGWKKLATDELEKYAKNEPTLIRIWGDALFDIVDKDQNGAITLDEWKAYTKAAGIIQSSEDCEETFRVCDIDESGQLDVDEMTRQHLGFWYTMDPTCEKLYGGAVP",3.0,1.3,medium-high to high,0.96,1.02,–
279 nM,"QT + AD: apoaequorin double mutant Q159T + A123D (SEQ ID NO:16) (protein, mutant aequorin) SKLTSDFDNPRWIGRHKHMFNFLDVNHNGKISLDEMVYKASDIVINNLGATPEQAKRHKDAVEAFFGGAGMKYGVETDWPAYIEGWKKLATDELEKYAKNEPTLIRIWGDALFDIVDKDQNGDITLDEWKAYTKAAGIIQSSEDCEETFRVCDIDESGTLDVDEMTRQHLGFWYTMDPACEKLYGGAVP",22.8,10.0,–,–,–,–
337 ± 10 nM,"QT + ND: apoaequorin double mutant Q159T + N121D (SEQ ID NO:14) (protein, mutant aequorin) SKLTSDFDNPRWIGRHKHMFNFLDVNHNGKISLDEMVYKASDIVINNLGATPEQAKRHKDAVEAFFGGAGMKYGVETDWPAYIEGWKKLATDELEKYAKNEPTLIRIWGDALFDIVDKDQDGAITLDEWKAYTKAAGIIQSSEDCEETFRVCDIDESGTLDVDEMTRQHLGFWYTMDPACEKLYGGAVP",14.4,12.2,–,–,–,–

# Further lines, the molecule ahead of its results:
Molecule,EC50 [1],Relative intensity at pCa 6.5 [1],Relative intensity at pCa 7.2 [1],affinity to calcium group relative to Aeq-wt [1],"Thermostability, luminescence activity relative to wt-aequorin ([2]; 30° C. for 30 min)","Thermostability, luminescence activity relative to wt-aequorin ([2]; 40° C. for 30 min)",less activity compared to wt-aeq (thermostability) ([2]; after incubation at 30 and 40° C.)
"A123D: apoaequorin mutant, alanine 123 replaced by aspartic acid (SEQ ID NO:10) (protein, mutant aequorin) SKLTSDFDNPRWIGRHKHMFNFLDVNHNGKISLDEMVYKASDIVINNLGATPEQAKRHKDAVEAFFGGAGMKYGVETDWPAYIEGWKKLATDELEKYAKNEPTLIRIWGDALFDIVDKDQNGDITLDEWKAYTKAAGIIQSSEDCEETFRVCDIDESGQLDVDEMTRQHLGFWYTMDPACEKLYGGAVP",374 nM,3.6,1.6,medium-high to high,0.82,0.84,19%
"S157A: aequorin single mutant S157A, low calcium affinity (protein) SKLTSDFDNPRWIGRHKHMFNFLDVNHNGKISLDEMVYKASDIVINNLGATPEQAKRHKDAVEAFFGGAGMKYGVETDWPAYIEGWKKLATDELEKYAKNEPTLIRIWGDALFDIVDKDQNGAITLDEWKAYTKAAGIIQSSEDCEETFRVCDIDEAGQLDVDEMTRQHLGFWYTMDPACEKLYGGAVP",–,–,–,low,–,–,–
"Q159T: apoaequorin mutant, glutamine 159 replaced by threonine (SEQ ID NO:6) (protein, mutant aequorin) SKLTSDFDNPRWIGRHKHMFNFLDVNHNGKISLDEMVYKASDIVINNLGATPEQAKRHKDAVEAFFGGAGMKYGVETDWPAYIEGWKKLATDELEKYAKNEPTLIRIWGDALFDIVDKDQNGAITLDEWKAYTKAAGIIQSSEDCEETFRVCDIDESGTLDVDEMTRQHLGFWYTMDPACEKLYGGAVP",249 ± 13 nM,16 and 16.6,4.8,medium-high to high,0.92,0.96,–
"Q159D: apoaequorin mutant, glutamine 159 replaced by aspartic acid (SEQ ID NO:5) (protein, mutant aequorin) SKLTSDFDNPRWIGRHKHMFNFLDVNHNGKISLDEMVYKASDIVINNLGATPEQAKRHKDAVEAFFGGAGMKYGVETDWPAYIEGWKKLATDELEKYAKNEPTLIRIWGDALFDIVDKDQNGAITLDEWKAYTKAAGIIQSSEDCEETFRVCDIDESGDLDVDEMTRQHLGFWYTMDPACEKLYGGAVP",330 nM,25 and 25.1,–,medium-high to high and high,0.95,1.00,–
"Q140R: aequorin single mutant Q140R, low calcium affinity (protein) SKLTSDFDNPRWIGRHKHMFNFLDVNHNGKISLDEMVYKASDIVINNLGATPEQAKRHKDAVEAFFGGAGMKYGVETDWPAYIEGWKKLATDELEKYAKNEPTLIRIWGDALFDIVDKDQNGAITLDEWKAYTKAAGIIRSSEDCEETFRVCDIDESGQLDVDEMTRQHLGFWYTMDPACEKLYGGAVP",–,–,–,low,–,–,–
"Q159E: apoaequorin mutant, glutamine 159 replaced by glutamic acid (SEQ ID NO:8) (protein, mutant aequorin) SKLTSDFDNPRWIGRHKHMFNFLDVNHNGKISLDEMVYKASDIVINNLGATPEQAKRHKDAVEAFFGGAGMKYGVETDWPAYIEGWKKLATDELEKYAKNEPTLIRIWGDALFDIVDKDQNGAITLDEWKAYTKAAGIIQSSEDCEETFRVCDIDESGELDVDEMTRQHLGFWYTMDPACEKLYGGAVP",–,–,–,–,0.89,0.94,–
"S157T: aequorin single mutant S157T, medium-low calcium affinity (protein) SKLTSDFDNPRWIGRHKHMFNFLDVNHNGKISLDEMVYKASDIVINNLGATPEQAKRHKDAVEAFFGGAGMKYGVETDWPAYIEGWKKLATDELEKYAKNEPTLIRIWGDALFDIVDKDQNGAITLDEWKAYTKAAGIIQSSEDCEETFRVCDIDETGQLDVDEMTRQHLGFWYTMDPACEKLYGGAVP",–,–,–,medium-low,–,–,–
